Values of other authors, collected in paper PMC8363833.

What was measured:
[1] = target: PC1 beta-lactamase (Staphylococcus aureus) (UniProt P00807)
[2] = target: TEM1 beta-lactamase (Escherichia coli) (UniProt P62593)
UniProt P62593, sequence (P62593 24-286): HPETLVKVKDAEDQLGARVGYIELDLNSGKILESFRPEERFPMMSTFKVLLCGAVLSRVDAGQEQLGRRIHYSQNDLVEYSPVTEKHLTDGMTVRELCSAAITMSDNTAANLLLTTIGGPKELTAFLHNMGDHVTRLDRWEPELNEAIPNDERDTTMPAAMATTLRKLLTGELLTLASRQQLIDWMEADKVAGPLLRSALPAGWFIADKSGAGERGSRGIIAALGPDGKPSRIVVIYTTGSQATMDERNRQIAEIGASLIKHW

UniProt P00807, sequence (P00807 25-281): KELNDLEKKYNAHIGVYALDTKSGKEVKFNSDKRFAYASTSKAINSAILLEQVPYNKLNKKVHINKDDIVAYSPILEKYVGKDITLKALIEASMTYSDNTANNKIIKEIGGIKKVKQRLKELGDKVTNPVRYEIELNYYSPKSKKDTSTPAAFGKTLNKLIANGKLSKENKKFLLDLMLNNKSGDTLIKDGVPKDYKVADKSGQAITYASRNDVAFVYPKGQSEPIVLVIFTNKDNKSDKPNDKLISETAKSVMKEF

## BLIP (from UniProt P35804)
[1]
  Kd: 380 nM
[2]
  Kd: 1.3 nM
